Source: paper PMC7610479

How the values were obtained:
[1] = biological target: Survival Motor Neuron (SMN) protein, recombinant (UniProt Q16637); assay: SPR
[2] = biological target: recombinant SMN (Survival Motor Neuron protein) (UniProt Q16637); assay: SPR

Substance: purified SMN-free 80S ribosomes from NSC-34 cells depleted from SMN (from UniProt P61255 1-145) (complex)
- Kd [1]: 0.01 nM

Substance: purified SMN-free 80S ribosomes from NSC-34 cells depleted of SMN (complex)
- Kd [2]: 9.8 pM
- koff [2]: 9.4e-05 s⁻¹
- kon [2]: 9.7e+06 M⁻¹ s⁻¹
